According to the supplement of paper PMC12764529:
± gives the half width of the 95% confidence interval.

What was measured:
[1] = folding stability dG unfold from chymotrypsin proteolysis; higher = more stable
Procedure, shortened: (§1)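 Designed mini-proteins with no cysteine and under 80 residues were kept only if AlphaFold2 dimer inter-PAE was above 15. In a PA-tagged cDNA display construct, they were digested with trypsin and chymotrypsin and then sequenced. K50 was inferred by Bayesian fitting of counts, and unfolding free energy was derived per protease or combined against a sequence-predicted unfolded-state K50 and a shared folded-state K50.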

[2] = folding stability dG unfold from trypsin proteolysis; higher = more stable
Procedure, shortened: as §1

[3] = folding stability dG unfold (combined trypsin and chymotrypsin); higher = more stable
Procedure, shortened: as §1

Sequence | folding stability dG unfold [1] [kcal/mol] | folding stability dG unfold [2] [kcal/mol] | folding stability dG unfold [3] [kcal/mol]
SAGGSAGGSAGGMLKIKVYRFDKNGKLVEEEEIELPENVKEIVIKDEKTGKYYKVEIVDSAGGSAGGSAGGS [r10_970_TrROS_Hall] | 2.02 ± 0.11 | 1.25 ± 0.053 | 1.76 ± 0.15
SAGGSAGGSAGGMLKITITTPGEEREFVIPTPEPEPPGEEEVAKELGLEDVEVEVEEVLESAGGSAGGSAGG [r11_219_JUSTAS] | -0.0518 ± 0.1 | 0.118 ± 0.04 | 0.0103 ± 0.12
SAGGSAGGSAGGMLKTKVTVDPTPDGVTRVTETTYDPSTGALVKTSTTIVVPGTGEVTAVSAGGSAGGSAGG [r7_804_JUSTAS] | 1.04 ± 0.031 | -0.779 ± 0.18 | 0.669 ± 0.062
SAGGSAGGSAGGMMKTTITITLPPNSSKEEAEKIKEEGLPAEEIVVEKNPDGTRVVTILESAGGSAGGSAGG [r11_97_JUSTAS] | 0.657 ± 0.051 | -0.915 ± 0.31 | 0.237 ± 0.15
SAGGSAGGSAGGMPDGAEFELEFEFELPDGYRVRLRIRARIGPDGVVEFEVEVEVYEVPDSAGGSAGGSAGG [r7_125_TrMRF] | 5.13 ± 0.12 | 4.58 ± 0.15 | 5.01 ± 0.13
SAGGSAGGSAGGMPIKVEEYELPNGEKILKEISPEGVVKVYKVDPVNGKKEVIEVIPINKSAGGSAGGSAGG [r7_898_JUSTAS] | 1.1 ± 0.073 | 0.446 ± 0.094 | 1.01 ± 0.19
SAGGSAGGSAGGMPILEIDVAGDSPDIAIETAKAIVDELPTYNPENVKVIIKDGKVIIGSAGGSAGGSAGGS [r10_182_TrMRF] | 1.66 ± 0.12 | 0.498 ± 0.018 | 1.25 ± 0.15
SAGGSAGGSAGGMPVIEIPIRPDPNGKPRSAEEIASKIKDRFGYPVKIVSVENNHITITVSAGGSAGGSAGG [r17_426_TrROS] | 0.983 ± 0.066 | 0.166 ± 0.076 | 0.707 ± 0.18
SAGGSAGGSAGGMPVTFTGENQPVEVLSVDPERPVVVVYYPPTGTLLVALPPTGKVFPVSAGGSAGGSAGGS [r10_440_TrMRF] | 0.492 ± 0.15 | -0.867 ± 0.54 | 0.18 ± 0.14
SAGGSAGGSAGGMRVYEFDSEEEAQAFAEELRAAEPDVREVTIERDPETGKYRVTVVAESAGGSAGGSAGGS [r10_544_JUSTAS] | 4.69 ± 0.091 | 4.24 ± 0.17 | 4.62 ± 0.14
SAGGSAGGSAGGMTIPLEFEFPDGRRLRITYHIEPSEDGLKITAEVEIEPIPEPPLPSDSAGGSAGGSAGGS [r10_1200_TrMRF] | 3.64 ± 0.13 | 1.93 ± 0.14 | 3.31 ± 0.26
SAGGSAGGSAGGMTLTIPEEVLKKALEEGDEELLKEVVEKAGVKPEDTEVIAVTPEDLLESAGGSAGGSAGG [r7_7_JUSTAS] | 0.919 ± 0.07 | 0.56 ± 0.072 | 0.822 ± 0.12
SAGGSAGGSAGGMTVERDPEKPVVTVTITDPSGASIVVEIPYETEEEAEAAVKKVIEELASAGGSAGGSAGG [r7_756_JUSTAS] | 1.53 ± 0.07 | 2.11 ± 0.091 | 1.83 ± 0.13
SAGGSAGGSAGGMTVRITTPDGRVIEIPAKDLSPEQLAALKEAGFEVVSVEPGRVTIRLKSAGGSAGGSAGG [r7_496_TrROS_Hall] | 1.92 ± 0.036 | 0.865 ± 0.1 | 1.49 ± 0.13
